In patent US20220315920:

System: TfuCascade (Cse2 N23A, Cas7-NLS) + TfuCas3 (Type I-E) Cse2 N23A (Thermobifida fusca)
Assay: cell_activity
Details: PAM AAG; for activity (% editing (6-TG resistance)): HAP1 cells RNP

AUGGACCGAAGCCGAGGCUCCCCCAGCGAAGCCCCUUUCCGUGAGCCCCACGCACGUGGG / AAGAAGCCGAGGCTCCCCCAGCGAAGCCCCTTTCC / GGAAAGGGGCTTCGCTGGGGGAGCCTCGGCTTCTT [crRNA HPRT-G2 ; HPRT target G2 (PAM+protospacer)]
activity (% editing (6-TG resistance)): 32

AUGGACCGACCUUGCACUACCUGUGGCUUCCAUUUUCCUGGUGAGCCCCACGCACGUGGG / AAGACCTTGCACTACCTGTGGCTTCCATTTTCCTG / CAGGAAAATGGAAGCCACAGGTAGTGCAAGGTCTT [crRNA HPRT-G1 ; HPRT target G1 (PAM+protospacer)]
activity (% editing (6-TG resistance)): 67

AUGGACCGCUGGACAUCACCUCCCACAACGAGGACUACACGUGAGCCCCACGCACGUGGG / AAGCTGGACATCACCTCCCACAACGAGGACTACAC / GTGTAGTCCTCGTTGTGGGAGGTGATGTCCAGCTT [crRNA tdTomato ; tdTomato target (PAM+protospacer)]
activity (% tdTomato-negative cells) (hESC RNP): 2.7

AUGGACCGGCUACGUCCAGGAGCGCACCAUCUUCUUCAAGGUGAGCCCCACGCACGUGGG / AAGGCTACGTCCAGGAGCGCACCATCTTCTTCAAG / CTTGAAGAAGATGGTGCGCTCCTGGACGTAGCCTT [crRNA GFP-G1 ; EGFP target G1 (PAM+protospacer)]
activity (% EGFP-negative cells) (hESC RNP electroporation, 80 pmol Cascade, 20 pmol Cas3, 7.3% in FIG. 1D): 13.1

AUGGACCGUCGAUGCCCUUCAGCUCGAUGCGGUUCACCAGGUGAGCCCCACGCACGUGGG / AAGTCGATGCCCTTCAGCTCGATGCGGTTCACCAG / CTGGTGAACCGCATCGAGCTGAAGGGCATCGACTT [crRNA GFP-G2 ; EGFP target G2 (PAM+protospacer)]
activity (% EGFP-negative cells) (hESC RNP): 2.7
